Experimental data as given in the supplement of paper PMC11246515.
± gives the standard deviation of the averaged measurements.

Assay: total protein half-life in vivo (active degradation + dilution); higher = more stable protein
[1] = E. coli NCM3722 delta-clpP delta-lon delta-hslV, growth: N-lim chemostat, doubling time 6 h
[2] = E. coli NCM3722 delta-clpP, growth: N-lim chemostat, doubling time 6 h
[3] = E. coli NCM3722 delta-hslV, growth: N-lim chemostat, doubling time 6 h
[4] = E. coli NCM3722 delta-lon, growth: N-lim chemostat, doubling time 6 h
[5] = E. coli NCM3722 delta-smpB, growth: N-lim chemostat, doubling time 6 h
[6] = wild type E. coli NCM3722, growth: C-lim chemostat, doubling time 3 h
[7] = wild type E. coli NCM3722, growth: C-lim chemostat, doubling time 6 h
[8] = wild type E. coli NCM3722, growth: C-lim chemostat, doubling time 12 h
[9] = wild type E. coli NCM3722, growth: N-lim chemostat, doubling time 6 h
[10] = wild type E. coli NCM3722, growth: N-lim chemostat, doubling time 12 h
[11] = wild type E. coli NCM3722, growth: P-lim chemostat, doubling time 6 h
[12] = wild type E. coli NCM3722, growth: P-lim chemostat, doubling time 12 h

Sequence | total protein half-life in vivo [1] [h] | total protein half-life in vivo [2] [h] | total protein half-life in vivo [3] [h] | total protein half-life in vivo [4] [h] | total protein half-life in vivo [5] [h] | total protein half-life in vivo [6] [h] | total protein half-life in vivo [7] [h] | total protein half-life in vivo [8] [h] | total protein half-life in vivo [9] [h] | total protein half-life in vivo [10] [h] | total protein half-life in vivo [11] [h] | total protein half-life in vivo [12] [h]
MSVLQVLHIPDERLRKVAKPVEEVNAEIQRIVDDMFETMYAEEGIGLAATQVDIHQRIIVIDVSENRDERLVLINPELLEKSGETGIEEGCLSIPEQRALVPRAEKVKIRALDRDGKPFELEADGLLAICIQHEMDHLVGKLFMDYLSPLKQQRIRQKVEKLDRLKARA [P0A6K3] | 5.89 ± 0.28 | 4.94 ± 1.4 | 3.19 ± 0.11 | 3.686 ± 0.032 | 2.84 ± 0.43 | 2.6 ± 0.4 | 3.936 ± 0.014 | 6.33 ± 0.35 | 3.12 ± 0.3 | 4.58 ± 0.57 | 4.29 | 8.94 ± 0.6
MPKIVILPHQDLCPDGAVLEANSGETILDAALRNGIEIEHACEKSCACTTCHCIVREGFDSLPESSEQEDDMLDKAWGLEPESRLSCQARVTDEDLVVEIPRYTINHAREH [P0A9R4] | 4.926 ± 0.026 | 5.96 ± 1.3 | 4.83 ± 0.91 | 6.22 ± 1.6 | 3.67 ± 0.56 | 3.16 ± 0.84 | – | 6.59 ± 0.084 | 4.05 ± 0.7 | 8.81 ± 2.2 | 5.22 ± 0.39 | 10.8 ± 0.6
MQNKLASGARLGRQALLFPLCLVLYEFSTYIGNDMIQPGMLAVVEQYQAGIDWVPTSMTAYLAGGMFLQWLLGPLSDRIGRRPVMLAGVVWFIVTCLAILLAQNIEQFTLLRFLQGISLCFIGAVGYAAIQESFEEAVCIKITALMANVALIAPLLGPLVGAAWIHVLPWEGMFVLFAALAAISFFGLQRAMPETATRIGEKLSLKELGRDYKLVLKNGRFVAGALALGFVSLPLLAWIAQSPIIIITGEQLSSYEYGLLQVPIFGALIAGNLLLARLTSRRTVRSLIIMGGWPIMIGLLVAAAATVISSHAYLWMTAGLSIYAFGIGLANAGLVRLTLFASDMSKGTVSAAMGMLQMLIFTVGIEISKHAWLNGGNGLFNLFNLVNGILWLSLMVIFLKDKQMGNSHEG [P0AEY8] | – | – | – | – | – | 3.11 | – | – | – | – | 5.65 ± 0.22 | 11 ± 2.6
MATVNKQAIAAAFGRAAAHYEQHADLQRQSADALLAMLPQRKYTHVLDAGCGPGWMSRHWRERHAQVTALDLSPPMLVQARQKDAADHYLAGDIESLPLATATFDLAWSNLAVQWCGNLSTALRELYRVVRPKGVVAFTTLVQGSLPELHQAWQAVDERPHANRFLPPDEIEQSLNGVHYQHHIQPITLWFDDALSAMRSLKGIGATHLHEGRDPRILTRSQLQRLQLAWPQQQGRYPLTYHLFLGVIARE | 4.79 ± 0.22 | 2.85 ± 0.37 | – | – | 0.556 | – | – | – | – | 1.13 | – | –
MNYSLKQLKVFVTVAQEKSFSRAGERIGLSQSAVSHSVKELENHTGVRLLDRTTREVVLTDAGQQLALRLERLLDELNSTLRDTGRMGQQLSGKVRVAASQTISAHLIPQCIAESHRRYPDIQFVLHDRPQQWVMESIRQGDVDFGIVIDPGPVGDLQCEAILSEPFFLLCHRDSALAVEDYVPWQALQGAKLVLQDYASGSRPLIDAALARNGIQANIVQEIGHPATLFPMVAAGIGISILPALALPLPEGSPLVVKRITPVVERQLMLVRRKNRSLSTAAEALWDVVRDQGNALMAGREGDPLYQI [P0ACR7] | 6.06 ± 0.61 | 4.84 ± 0.076 | 5.19 ± 0.28 | – | – | 2.84 | – | 12.5 ± 1.6 | 4.85 ± 0.15 | 9.2 ± 0.89 | 3.88 | 6.14 ± 1.9
MKYSLGPVLWYWPKETLEEFYQQAATSSADVIYLGEAVCSKRRATKVGDWLEMAKSLAGSGKQIVLSTLALVQASSELGELKRYVENGEFLIEASDLGVVNMCAERKLPFVAGHALNCYNAVTLKILLKQGMMRWCMPVELSRDWLVNLLNQCDELGIRNQFEVEVLSYGHLPLAYSARCFTARSEDRPKDECETCCIKYPNGRNVLSQENQQVFVLNGIQTMSGYVYNLGNELASMQGLVDVVRLSPQGTDTFAMLDAFRANENGAAPLPLTANSDCNGYWRRLAGLELQA | 3.35 | – | – | – | – | – | – | – | – | – | – | –
MKMLRDPLFWLIALFVALIFWLPYSQPLFAALFPQLPRPVYQQESFAALALAHFWLVGISSLFAVIIGTGAGIAVTRPWGAEFRPLVETIAAVGQTFPPVAVLAIAVPVIGFGLQPAIIALILYGVLPVLQATLAGLGAIDASVTEVAKGMGMSRGQRVRKVELPLAAPVILAGVRTSVIINIGTATIASTVGASTLGTPIIIGLSGFNTAYVIQGALLVALAAIIADRLFERLVQALSQHAK | – | – | – | – | – | – | – | – | – | 5.89 | – | –
MDKVLDSALLSSANKRKGILAIGAHPDDIELGCGASLARLAQKGIYIAAVVMTTGNSGTDGIIDRHEESRNALKILGCHQTIHLNFADTRAHLQLNDMISALEDIIKNQIPSDVEIMRVYTMHDADRHQDHLAVYQASMVACRTIPQILGYETPSTWLSFMPQVFESVKEEYFTVKLAALKKHKS | 5.73 | – | – | – | – | – | – | – | – | – | – | –
MANLSGYNFAYLDEQTKRMIRRAILKAVAIPGYQVPFGGREMPMPYGWGTGGIQLTASVIGESDVLKVIDQGADDTTNAVSIRNFFKRVTGVNTTERTDDATVIQTRHRIPETPLTEDQIIIFQVPIPEPLRFIEPRETETRTMHALEEYGVMQVKLYEDIARFGHIATTYAYPVKVNGRYVMDPSPIPKFDNPKMDMMPALQLFGAGREKRIYAVPPFTRVESLDFDDHPFTVQQWDEPCAICGSTHSYLDEVVLDDAGNRMFVCSDTDYCRQQSEAKNQ | – | – | – | – | – | – | – | – | – | – | 0.723 ± 0.41 | 1.37 ± 0.74
MDFPQRVNGWALYAHPCFQETYDALVAEVETLKGKDPENYQRKAATKLLAVVHKVIEEHITVNPSSPAFRHGKSLGSGKNKDWSRVKFGAGRYRLFFRYSEKEKVIILGWMNDENTLRTYGKKTDAYTVFSKMLKRGHPPADWETLTRETEETH | – | 6.54 | 5.12 | 7.11 ± 0.75 | 5.58 | 3.3 | > 8 | 10.2 | 6.09 ± 0.47 | 12.2 | 5.56 ± 0.21 | 15.6
MAVNLLKKNSLALVASLLLAGHVQATELLNSSYDVSRELFAALNPPFEQQWAKDNGGDKLTIKQSHAGSSKQALAILQGLKADVVTYNQVTDVQILHDKGKLIPADWQSRLPNNSSPFYSTMGFLVRKGNPKNIHDWNDLVRSDVKLIFPNPKTSGNARYTYLAAWGAADKADGGDKGKTEQFMTQFLKNVEVFDTGGRGATTTFAERGLGDVLISFESEVNNIRKQYEAQGFEVVIPKTNILAEFPVAWVDKNVQANGTEKAAKAYLNWLYSPQAQTIITDYYYRVNNPEVMDKLKDKFPQTELFRVEDKFGSWPEVMKTHFTSGGELDKLLAAGRN | 4.09 ± 0.2 | 5.26 ± 0.17 | 6.24 ± 0.08 | 6.861 ± 0.011 | 5.74 ± 0.07 | 3.3 ± 0.27 | 6.1057 ± 0.00027 | 10 ± 0.37 | 6.338 ± 0.056 | 12.8 ± 0.46 | 6.18 ± 0.1 | 12.4 ± 0.31
